{"source": "paper PMC9090809", "about": "(2022)", "target": "LC3-trap Wx8 (covalently labelled with an N-hydroxysuccinimide (RED-NHS) dye in the MST)", "assay": "MST"}
{"binder": "recombinant GABARAP (natural protein) MKFVYKEEHPFEKRRSEGEKIRKKYPDRVPVIVEKAPKARIGDLDKKKYLVPSDLTVGQFYFLIRKRIHLRAEDALFFFVNNVIPPTSATMGQLYQEHHEEDFFLYIAYSDESVYGL", "values": [{"measurement": "Kd", "result": 24.8, "unit": "nM"}]}
{"binder": "recombinant LC3C (natural protein) MPPPQKIPSVRPFKQRKSLAIRQEEVAGIRAKFPNKIPVVVERYPRETFLPPLDKTKFLVPQELTMTQFLSIIRSRMVLRATEAFYLLVNNKSLVSMSATMAEIYRDYKDEDGFVYMTYASQETFG", "values": [{"measurement": "Kd", "result": 3.4, "unit": "nM"}]}
